The values below come from patent US20220372160A1 (published 2022).

The chains are these.
T1: recombinant human CD39 (human, UniProt P49961 38-478)
T1 chain: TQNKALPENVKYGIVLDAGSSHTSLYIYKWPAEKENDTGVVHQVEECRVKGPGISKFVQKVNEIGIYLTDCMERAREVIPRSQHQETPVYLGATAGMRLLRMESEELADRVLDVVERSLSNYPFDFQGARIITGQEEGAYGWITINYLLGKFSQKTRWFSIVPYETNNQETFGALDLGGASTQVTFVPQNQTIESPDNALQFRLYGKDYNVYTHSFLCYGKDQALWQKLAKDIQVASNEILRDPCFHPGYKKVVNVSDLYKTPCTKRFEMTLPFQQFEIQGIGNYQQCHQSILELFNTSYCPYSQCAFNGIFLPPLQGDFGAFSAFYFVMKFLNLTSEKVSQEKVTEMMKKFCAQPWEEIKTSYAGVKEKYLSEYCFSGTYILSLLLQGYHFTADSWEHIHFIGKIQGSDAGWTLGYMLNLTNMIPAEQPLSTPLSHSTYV

B1: Clone #10 (antibody, V domains shown)
VH: QVQLVQSGAEVKKPGSSVKVSCKASGGTFSNYAISWVRQAPGQGLEWMGGIIPIFGTANYAQKFQGRVTITADESTSTAYMELSSLRSEDTAVYYCARPRGDYSGYDAGPIDYWGQGTLVTVSS
VL: EIVLTQSPATLSLSPGERATLSCRASQSVSSYLAWYQQKPGQAPRLLIYDASNRATGIPARFSGSGSGTDFTLTISSLEPEDFAVYYCQQRFHFPPTFGGGTKVEIK
B2: Clone #16 (antibody, V domains shown)
VH: QVQLVQSGAEVKKPGSSVKVSCKASGGTFSSNAIGWVRQAPGQGLEWMGGIIPAFGTANYAQKFQGRVTITADESTSTAYMELSSLRSEDTAVYYCARDPVRRSPFDIWGQGTMVTVSS
VL: EIVLTQSPATLSLSPGERATLSCRASQSVSSYLAWYQQKPGQAPRLLIYDSSNRATGIPARFSGSGSGTDFTLTISSLEPEDFAVYYCQQSFLWPRTFGGGTKVEIK
B3: Clone #11 (antibody, V domains shown)
VH: QVQLVQSGAEVKKPGSSVKVSCKASGGTFSNYAISWVRQAPGQGLEWMGGIIPIFGTANYAQKFQGRVTITADESTSTAYMELSSLRSEDTAVYYCARPRGDYSGYDAGPIDYWGQGTLVTVSS
VL: EIVMTQSPATLSLSPGERATLSCRASQSVSSYLAWYQQKPGQAPRLLIYDSSNRATGIPARFSGSGSGTDFTLTISSLEPEDFAVYYCQQRYLFPITFGGGTKVEIK
B4: Clone #2 (antibody, V domains shown)
VH: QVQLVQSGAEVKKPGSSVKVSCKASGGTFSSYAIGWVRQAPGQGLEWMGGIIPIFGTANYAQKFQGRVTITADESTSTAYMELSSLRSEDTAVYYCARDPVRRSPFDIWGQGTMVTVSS
VL: EIVLTQSPATLSLSPGERATLSCRASQSVSSYLAWYQQKPGQAPRLLIYDSSNRATGIPARFSGSGSGTDFTLTISSLEPEDFAVYYCQQSFLWPRTFGGGTKVEIK
B5: Clone #8 (antibody, V domains shown)
VH: QLQLQESGPGLVKPSETLSLTCTVSGGSISSSSYYWGWIRQPPGKGLEWIGSIYYSGSTYYNPSLKSRVTISVDTSKNQFSLKLSSVTAADTAVYYCARGSPTYHDFDLWGRGTLVTVSS
VL: EIVLTQSPATLSLSPGERATLSCRASQSVSSYLAWYQQKPGQAPRLLIYDASNRATGIPARFSGSGSGTDFTLTISSLEPEDFAVYYCQQRAIWPPTFGGGTKVEIK
B6: Clone #12 (antibody, V domains shown)
VH: EVQLVESGGGLVQPGGSLRLSCAASGFTFSSYYMQWVRQAPGKGLEWVSYISSSSSTIGYADSVKGRFTISRDNAKNSLYLQMNSLRAEDTAVYYCAKGPRYDSSGYRWRYGMDVWGQGTTVTVSS
VL: DIQMTQSPSSLSASVGDRVTITCRASQSISSYLNWYQQKPGKAPKLLIYAASSLQSGVPSRFSGSGSGTDFTLTISSLQPEDFATYYCQQLALTPYTFGGGTKVEIK
B7: Clone #4 (antibody, V domains shown)
VH: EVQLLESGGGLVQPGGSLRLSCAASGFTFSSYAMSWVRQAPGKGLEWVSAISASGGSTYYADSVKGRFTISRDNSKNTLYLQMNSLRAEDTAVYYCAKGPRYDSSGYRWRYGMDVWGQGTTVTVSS
VL: DIQMTQSPSSLSASVGDRVTITCRASQSISSYLNWYQQKPGKAPKLLIYAASSLQSGVPSRFSGSGSGTDFTLTISSLQPEDFATYYCQQLALTPYTFGGGTKVEIK
B8: Clone #7 (antibody, V domains shown)
VH: QVQLQESGPGLVKPSETLSLTCAVSGYSISSGYYWAWIRQPPGKGLEWIGSIYHSGSTYYNPSLKSRVTISVDTSKNQFSLKLSSVTAADTAVYYCARGAGHRQFAFDIWGQGTMVTVSS
VL: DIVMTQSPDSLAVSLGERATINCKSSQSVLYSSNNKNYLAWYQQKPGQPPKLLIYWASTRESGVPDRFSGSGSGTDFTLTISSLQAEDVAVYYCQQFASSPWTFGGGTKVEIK
B9: Clone #9 (antibody, V domains shown)
VH: QVQLQESGPGLVKPSETLSLTCAVSGYSISSGYYWAWIRQPPGKGLEWIGSIYHSGSTYYNPSLKSRVTISVDTSKNQFSLKLSSVTAADTAVYYCARGAGHRQFAFDIWGQGTMVTVSS
VL: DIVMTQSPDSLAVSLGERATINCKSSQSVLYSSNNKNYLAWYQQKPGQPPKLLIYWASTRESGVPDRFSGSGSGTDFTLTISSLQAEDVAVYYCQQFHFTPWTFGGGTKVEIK
B10: Clone #3 (antibody, V domains shown)
VH: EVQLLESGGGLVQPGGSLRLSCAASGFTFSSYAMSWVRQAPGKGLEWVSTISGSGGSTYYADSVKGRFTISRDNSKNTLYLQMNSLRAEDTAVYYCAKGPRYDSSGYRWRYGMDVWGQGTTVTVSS
VL: DIQMTQSPSSLSASVGDRVTITCRASQSISSYLNWYQQKPGKAPKLLIYAASSLQSGVPSRFSGSGSGTDFTLTISSLQPEDFATYYCQQLYVDPPWTFGGGTKVEIK
B11: Clone #19 (antibody, V domains shown)
VH: EVQLVESGGGLVQPGGSLRLSCAASGFTFRSYWMSWVRQAPGKGLEWVATIKQDGSEKFYVDSVKGRFTISRDNAKNSLYLQMNSLRAEDTAVYYCARDFTRWSHVNWFDPWGQGTLVTVSS
VL: EIVMTQSPATLSVSPGERATLSCRASQSVSSSLAWYQQKPGQAPRLLIFGASTRATGIPARFSGSGSGTEFTLTISSLQSEDFAVYYCQQYYHHPYTFGGGTKVEIK
B12: Clone #6 (antibody, V domains shown)
VH: EVQLVESGGGLVQPGGSLRLSCAASGFTFSSYGMSWVRQAPGKGLEWVANIKQDGSEKYYVDSVKGRFTISRDNAKNSLYLQMNSLRAEDTAVYYCARDFTRWSHVNWFDPWGQGTLVTVSS
VL: EIVMTQSPATLSVSPGERATLSCRASQSVSSSLAWYQQKPGQAPRLLIFGASTRATGIPARFSGSGSGTEFTLTISSLQSEDFAVYYCQQYYHHPYTFGGGTKVEIK

The assay concerns the target T1, recombinant human CD39. The assay can be described thus: BLI (ForteBio); IgG, monovalent. Background: BLI is a label-free optical method that tracks binding on a fibre tip over time.
As to B1, the Kd (as a rule, the equilibrium constant for the complex coming apart) came to 37.3 nM. Then B2, with 3.81 nM. Then B3, with 14.7 nM; and B4, with 11.6 nM. For B5, the Kd is 28.3 nM. Then B6, with 1.38 nM; and B7, with 3.65 nM; and B8, with 94.3 nM. For the molecule B9, the Kd was found to be 124 nM. With B10, the Kd was 3.25 nM. With B11, the Kd was 28.3 nM. On to B12, for which the Kd came to 177 nM.
